Results on 24 variants are retold here after the supplement of paper PMC7125110.

± gives the standard error. This sample holds only a part of the variants without activity.

Sequences and labels used below:
B1: glmS ribozyme (parent)
chain: AUAAAAGCGCCAGAACUACAGAAAUGUAGUUGACGAGGAGGAGGUUUAUCGAAUUUUCGGCGGAUGCCUCCAAA

What all share (conditions): with glucosamine-6-phosphate
The variants in series [1] derive from B1. Nature of the series: self-cleavage kobs at 40 uM GlcN6P; higher = faster cleavage; RNA array. The gist of the method:
(§1)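 kcat and KM were obtained from weighted Michaelis–Menten fits across concentrations of kobs values. Those came from one- or two-exponential decay fits to per-tile medians normalised to baseline and to non-cleaving reference variants. The variants were barcoded ribozymes transcribed in situ by E. coli RNA polymerase on sequenced MiSeq chips and tracked through a hybridised Cy3 probe at 37 °C, with 40 μM to 10 mM glucosamine-6-phosphate in HEPES/KCl/Mg(OAc)2 buffer flowed in.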

Variants of B1 are the subject of series [2]. The series can be described thus: self-cleavage kobs at 160 uM GlcN6P; higher = faster cleavage; RNA array. In short, it runs like this: as §1
Variants of B1 are the subject of series [3]. Nature of the series: self-cleavage kobs at 640 uM GlcN6P; higher = faster cleavage; RNA array. In short, it runs like this:
as §1

The variants in series [4] derive from B1. Nature of the series: self-cleavage kobs at 2500 uM GlcN6P; higher = faster cleavage; RNA array. In short, it runs like this:
as §1

Variants of B1 are the subject of series [5]. Nature of the series: self-cleavage kobs at 10000 uM GlcN6P; higher = faster cleavage; RNA array. In short, it runs like this: as §1

Consider G7C, for which the “self-cleavage kobs at 40 uM GlcN6P” value with glucosamine-6-phosphate [1] was < 1e-05 s⁻¹. For the same variant, the “self-cleavage kobs at 160 uM GlcN6P” value with glucosamine-6-phosphate [2] is < 1e-05 s⁻¹. The “self-cleavage kobs at 640 uM GlcN6P” value in the series with glucosamine-6-phosphate [3] was < 1e-05 s⁻¹. The “self-cleavage kobs at 2500 uM GlcN6P” value in the series with glucosamine-6-phosphate [4] is < 1e-05 s⁻¹. In the series with glucosamine-6-phosphate [5], the “self-cleavage kobs at 10000 uM GlcN6P” value was < 1e-05 s⁻¹.
Turning to A33G U65G, the “self-cleavage kobs at 40 uM GlcN6P” value with glucosamine-6-phosphate [1] is < 1e-05 s⁻¹. Further, in the series with glucosamine-6-phosphate [2], the “self-cleavage kobs at 160 uM GlcN6P” value is < 1e-05 s⁻¹. In addition, the “self-cleavage kobs at 640 uM GlcN6P” value in the series with glucosamine-6-phosphate [3] was < 1e-05 s⁻¹. Further, the “self-cleavage kobs at 2500 uM GlcN6P” value in the series with glucosamine-6-phosphate [4] was < 1e-05 s⁻¹. In addition, the “self-cleavage kobs at 10000 uM GlcN6P” value with glucosamine-6-phosphate [5] is < 1e-05 s⁻¹.
Consider U30C G37U, for which the “self-cleavage kobs at 40 uM GlcN6P” value with glucosamine-6-phosphate [1] is < 1e-05 s⁻¹.
Consider G7A U46G, for which the “self-cleavage kobs at 40 uM GlcN6P” value with glucosamine-6-phosphate [1] is < 1e-05 s⁻¹. In the series with glucosamine-6-phosphate [2], the “self-cleavage kobs at 160 uM GlcN6P” value was < 1e-05 s⁻¹. The “self-cleavage kobs at 640 uM GlcN6P” value with glucosamine-6-phosphate [3] is < 1e-05 s⁻¹.
Consider A52C U55A, for which the “self-cleavage kobs at 40 uM GlcN6P” value with glucosamine-6-phosphate [1] was < 1e-05 s⁻¹. The “self-cleavage kobs at 10000 uM GlcN6P” value in the series with glucosamine-6-phosphate [5] is 3.4e-05 ± 1.3e-05 s⁻¹.
The corresponding values for G35U G51A U54G are < 1e-05 s⁻¹ and < 1e-05 s⁻¹.
Take A33C G63C: the “self-cleavage kobs at 40 uM GlcN6P” value in the series with glucosamine-6-phosphate [1] is < 1e-05 s⁻¹. The “self-cleavage kobs at 160 uM GlcN6P” value with glucosamine-6-phosphate [2] was < 1e-05 s⁻¹. The “self-cleavage kobs at 2500 uM GlcN6P” value with glucosamine-6-phosphate [4] was < 1e-05 s⁻¹. In addition, in the series with glucosamine-6-phosphate [5], the “self-cleavage kobs at 10000 uM GlcN6P” value was < 1e-05 s⁻¹.
With C8G G29U, the “self-cleavage kobs at 40 uM GlcN6P” value with glucosamine-6-phosphate [1] is < 1e-05 s⁻¹. In the series with glucosamine-6-phosphate [2], the “self-cleavage kobs at 160 uM GlcN6P” value was < 1e-05 s⁻¹. Further, the “self-cleavage kobs at 640 uM GlcN6P” value with glucosamine-6-phosphate [3] is < 1e-05 s⁻¹. Further, the “self-cleavage kobs at 2500 uM GlcN6P” value in the series with glucosamine-6-phosphate [4] is < 1e-05 s⁻¹. The “self-cleavage kobs at 10000 uM GlcN6P” value in the series with glucosamine-6-phosphate [5] is < 1e-05 s⁻¹.
Consider U46G U49C, for which, in the series with glucosamine-6-phosphate [1], the “self-cleavage kobs at 40 uM GlcN6P” value was < 1e-05 s⁻¹. The “self-cleavage kobs at 160 uM GlcN6P” value with glucosamine-6-phosphate [2] was < 1e-05 s⁻¹. Moreover, the “self-cleavage kobs at 640 uM GlcN6P” value in the series with glucosamine-6-phosphate [3] was < 1e-05 s⁻¹. The “self-cleavage kobs at 2500 uM GlcN6P” value in the series with glucosamine-6-phosphate [4] was < 1e-05 s⁻¹. Further, the “self-cleavage kobs at 10000 uM GlcN6P” value with glucosamine-6-phosphate [5] was < 1e-05 s⁻¹.
Regarding U47G C71U, the “self-cleavage kobs at 40 uM GlcN6P” value in the series with glucosamine-6-phosphate [1] came out at 0.000224 ± 2.2e-05 s⁻¹. Also, in the series with glucosamine-6-phosphate [2], the “self-cleavage kobs at 160 uM GlcN6P” value was determined as 0.000648 ± 8.2e-05 s⁻¹. Besides, in the series with glucosamine-6-phosphate [3], the “self-cleavage kobs at 640 uM GlcN6P” value was found to be 0.001 ± 0.00012 s⁻¹. For the same variant, the “self-cleavage kobs at 2500 uM GlcN6P” value in the series with glucosamine-6-phosphate [4] came out at 0.00216 ± 0.00038 s⁻¹. The “self-cleavage kobs at 10000 uM GlcN6P” value with glucosamine-6-phosphate [5] turned out to be 0.00702 ± 0.00088 s⁻¹.
Turning to G37U G40U U45C, the “self-cleavage kobs at 40 uM GlcN6P” value with glucosamine-6-phosphate [1] is < 1e-05 s⁻¹. In addition, in the series with glucosamine-6-phosphate [5], the “self-cleavage kobs at 10000 uM GlcN6P” value was < 1e-05 s⁻¹.
As to G41C C58U G59C, the “self-cleavage kobs at 40 uM GlcN6P” value with glucosamine-6-phosphate [1] is < 1e-05 s⁻¹.
With C50U G51U, in the series with glucosamine-6-phosphate [1], the “self-cleavage kobs at 40 uM GlcN6P” value is < 1e-05 s⁻¹. Also, the “self-cleavage kobs at 10000 uM GlcN6P” value with glucosamine-6-phosphate [5] was < 1e-05 s⁻¹.
Consider C50A C58U C61U G63U, for which the “self-cleavage kobs at 40 uM GlcN6P” value in the series with glucosamine-6-phosphate [1] was < 1e-05 s⁻¹.
On to G59A U65G, for which, in the series with glucosamine-6-phosphate [1], the “self-cleavage kobs at 40 uM GlcN6P” value was < 1e-05 s⁻¹.
Regarding G43A C58A, the “self-cleavage kobs at 40 uM GlcN6P” value in the series with glucosamine-6-phosphate [1] was < 1e-05 s⁻¹. Moreover, the “self-cleavage kobs at 160 uM GlcN6P” value in the series with glucosamine-6-phosphate [2] was < 1e-05 s⁻¹. The “self-cleavage kobs at 640 uM GlcN6P” value in the series with glucosamine-6-phosphate [3] was < 1e-05 s⁻¹. Moreover, in the series with glucosamine-6-phosphate [4], the “self-cleavage kobs at 2500 uM GlcN6P” value was < 1e-05 s⁻¹. For the same variant, the “self-cleavage kobs at 10000 uM GlcN6P” value in the series with glucosamine-6-phosphate [5] is < 1e-05 s⁻¹.
Take C10A G32A U47A: the “self-cleavage kobs at 40 uM GlcN6P” value with glucosamine-6-phosphate [1] is < 1e-05 s⁻¹.
With C10G G32U A36C G40U G63U, in the series with glucosamine-6-phosphate [1], the “self-cleavage kobs at 40 uM GlcN6P” value is < 1e-05 s⁻¹. For the same variant, in the series with glucosamine-6-phosphate [4], the “self-cleavage kobs at 2500 uM GlcN6P” value was < 1e-05 s⁻¹. In addition, in the series with glucosamine-6-phosphate [5], the “self-cleavage kobs at 10000 uM GlcN6P” value is < 1e-05 s⁻¹.
For C10U G29U U56G, in the series with glucosamine-6-phosphate [1], the “self-cleavage kobs at 40 uM GlcN6P” value is < 1e-05 s⁻¹. The “self-cleavage kobs at 10000 uM GlcN6P” value in the series with glucosamine-6-phosphate [5] was < 1e-05 s⁻¹.
As to A12C G32A G44C, the “self-cleavage kobs at 40 uM GlcN6P” value in the series with glucosamine-6-phosphate [1] is < 1e-05 s⁻¹. In addition, the “self-cleavage kobs at 2500 uM GlcN6P” value with glucosamine-6-phosphate [4] is < 1e-05 s⁻¹.
Regarding G37C A42U C70A, the “self-cleavage kobs at 40 uM GlcN6P” value in the series with glucosamine-6-phosphate [1] is < 1e-05 s⁻¹.
Regarding C16G G59U, the “self-cleavage kobs at 40 uM GlcN6P” value with glucosamine-6-phosphate [1] was < 1e-05 s⁻¹. In addition, the “self-cleavage kobs at 640 uM GlcN6P” value with glucosamine-6-phosphate [3] was < 1e-05 s⁻¹. The “self-cleavage kobs at 2500 uM GlcN6P” value with glucosamine-6-phosphate [4] is < 1e-05 s⁻¹.
With C11U G32C A36G G62A C71G, the “self-cleavage kobs at 40 uM GlcN6P” value with glucosamine-6-phosphate [1] was < 1e-05 s⁻¹. Further, the “self-cleavage kobs at 640 uM GlcN6P” value with glucosamine-6-phosphate [3] was < 1e-05 s⁻¹.
For A52C C68G, the “self-cleavage kobs at 40 uM GlcN6P” value with glucosamine-6-phosphate [1] is 4.36e-05 ± 1.5e-05 s⁻¹. Besides, the “self-cleavage kobs at 640 uM GlcN6P” value with glucosamine-6-phosphate [3] is 0.000126 ± 3.5e-05 s⁻¹. In addition, the “self-cleavage kobs at 10000 uM GlcN6P” value with glucosamine-6-phosphate [5] was 2.34e-05 ± 1.1e-05 s⁻¹.
